Earlier results, collected in paper PMC7883480.

How the values were obtained:
CXCR4 (Homo sapiens) = CXCR4 (Homo sapiens) (UniProt P61073); assay: radioligand competitive displacement
[1] = molecular target: GIP receptor (Homo sapiens) (UniProt P48546); assay: competitive binding assay
[2] = molecular target: GLP-1 receptor (Homo sapiens) (UniProt P43220); assay: SPA binding assay

For CXCL12 1-68 (from UniProt P48061), the Kd (CXCR4 (Homo sapiens)) is given as 1.44 nM.

For CXCL12 3-68 (from UniProt P48061), the Kd (CXCR4 (Homo sapiens)) is listed as 464 nM.

In the case of GIP 1-30 (from UniProt P09681), the Ki [1] is given as 0.89 nM.

In the case of GIP 3-30 (from UniProt P09681), the Ki [1] is listed as 2.3 nM.

For GLP-1 7-36 (from UniProt P01275), the Ki [2] is given as 0.102 nM.

In the case of GLP-1 9-36 (from UniProt P01275), the Ki [2] is listed as 156 nM.
